The record followed here is publication PMC12356840, “Structural basis for substrate recognition mechanism of human SLC26A7” (Nature Communications, 2025).

The series deals with the molecule itself. Description: cryo-EM structure; purified SLC26A7 in 25 mM Tris pH 8.0, 150 mM NaCl, 0.02% GDN, 5-10 mg/ml; apo sample and sample with 20 mM sodium iodide; dimer model obtained by C2 symmetry.

B1: human SLC26A7 (solute carrier family 26 member 7) (natural protein, UniProt Q8TE54 1-656, looked up)
chain: MTGAKRKKKSMLWSKMHTPQCEDIIQWCRRRLPILDWAPHYNLKENLLPDTVSGIMLAVQQVTQGLAFAVLSSVHPVFGLYGSLFPAIIYAIFGMGHHVATGTFALTSLISANAVERIVPQNMQNLTTQSNTSVLGLSDFEMQRIHVAAAVSFLGGVIQVAMFVLQLGSATFVVTEPVISAMTTGAATHVVTSQVKYLLGMKMPYISGPLGFFYIYAYVFENIKSVRLEALLLSLLSIVVLVLVKELNEQFKRKIKVVLPVDLVLIIAASFACYCTNMENTYGLEVVGHIPQGIPSPRAPPMNILSAVITEAFGVALVGYVASLALAQGSAKKFKYSIDDNQEFLAHGLSNIVSSFFFCIPSAAAMGRTAGLYSTGAKTQVACLISCIFVLIVIYAIGPLLYWLPMCVLASIIVVGLKGMLIQFRDLKKYWNVDKIDWGIWVSTYVFTICFAANVGLLFGVVCTIAIVIGRFPRAMTVSIKNMKEMEFKVKTEMDSETLQQVKIISINNPLVFLNAKKFYTDLMNMIQKENACNQPLDDISKCEQNTLLNSLSNGNCNEEASQSCPNEKCYLILDCSGFTFFDYSGVSMLVEVYMDCKGRSVDVLLAHCTASLIKAMTYYGNLDSEKPIFFESVSAAISHIHSNKNLSKLSDHSEV
notes: full-length wild-type human SLC26A7 (also known as SUT2), UniProt Q8TE54; Homodimer (domain-swapped) in the cryo-EM structures; both were used to capture the protein on the way to the structure; The iodide-loaded sample had 20 mM sodium iodide throughout the purification; also called SUT2; SLC26A7_apo
For B1, the “stoichiometry N” value was 2.

What is called stoichiometry N is a count of units in the complex or per binding partner.
